# PMC10805701, “Structure of mycobacterial ergothioneine-biosynthesis C-S lyase EgtE” (The Journal of Biological Chemistry, 2023)
# Changes are numbered by the printed parent chain. Numbers in names are those of the source.
# B1: MsEgtE (Mycolicibacterium smegmatis MC2 155) (protein)
# chain: MMLAQQWRDARPKVAGLHLDSGACSRQSFAVIDATTAHARHEAEVGGYVAAEAATPALDAGRAAVASLIGFAASDVVYTSGSNHAIDLLLSSWPGKRTLACLPGEYGPNLSAMAANGFQVRALPVDDDGRVLVDEASHELSAHPVALVHLTALASHRGIAQPAAELVEACHNAGIPVVIDAAQALGHLDCNVGADAVYSSSRKWLAGPRGVGVLAVRPELAERLQPRIPPSDWPIPMSVLEKLELGEHNAAARVGFSVAVGEHLAAGPTAVRERLAEVGRLSRQVLAEVDGWRVVEPVDQPTAITTLESTDGADPASVRSWLIAERGIVTTACELARAPFEMRTPVLRISPHVDVTVDELEQFAAALREAP
# notes: full-length ORF, pET28a N-terminal hexa-histidine tag, E. coli BL21 (DE3); homodimer (~76 kDa by SEC, predicted 78 kDa)
# B2: MsEgtE (Mycolicibacterium smegmatis MC2 155; Y106F) (protein)
# chain: B1 chain with Y106F
# notes: as for B1
# B3: MsEgtE (Mycolicibacterium smegmatis MC2 155; Q183A) (protein)
# chain: B1 chain with Q183A
# notes: as for B1
# B4: ergothioneine-biosynthesis C-S lyase EgtE from Mycobacterium smegmatis (enzyme, M. smegmatis strain mc2155, UniProt A0R5M7 1-371, looked up)
# chain: B1 chain
# modifications: PLP covalently linked to Lys203 via a Schiff base linkage (monomer 1; bond broken in monomer 2 of the MsEgtE-PLP crystal)
# notes: EgtE (PLP-dependent C-S lyase), Mycobacterium smegmatis strain mc2155, full-length ORF of msmeg_6246 in pET28a; residues 1-371 described in the structure; Homodimer by crystal structure and size exclusion chromatography; also called MsEgtE; MsEgtE-PLP
# B5: MsEgtE (Mycolicibacterium smegmatis MC2 155; R202K) (protein)
# chain: B1 chain with R202K
# notes: as for B1
# How the values were obtained:
# [1] = molecular target: T1, MsEgtE (Mycolicibacterium smegmatis, UniProt A0R5M7); experiment: X-ray crystal structure, […] Å; type: binding; details: active site of MsEgtE-PLP; from soaked sulfoxide 4 (10 mM)
# T1 construct: gene egtE; full-length ORF, pET28a N-terminal hexa-histidine tag, E. coli BL21 (DE3); homodimer (~76 kDa by SEC, predicted 78 kDa)
# T1 sequence (A0R5M7 1-371): B1 chain
# [2] = molecular target: T2, MsEgtE (Mycolicibacterium smegmatis, UniProt A0R5M7, Y48A); experiment: isothermal titration calorimetry, single injection; type: binding; details: 25 °C; 1 mM sulfoxide 4 injected into 20 μM enzyme
# T2 construct: gene egtE; full-length ORF, pET28a N-terminal hexa-histidine tag, E. coli BL21 (DE3); homodimer (~76 kDa by SEC, predicted 78 kDa)
# [3] = substrate: C[N+](C)(C)[C@@H](Cc1cnc([S+]([O-])C[C@H](N)C(=O)O)[nH]1)C(=O)[O-]; experiment: purified protein; type: biochemical, Mycolicibacterium smegmatis; details: 50 mM KPi pH 8.0, 25 °C, PLP-loaded enzyme, 1 mM DTT, 0.13 mM NADH
# [4] = molecular target: the molecule itself; experiment: crystal structure; MsEgtE-PLP binding pyruvate crystal, 2.35 Å, short soak in sulfoxide 4; 0.1 M citric acid pH 6.5, 15% PEG8000, 15% glycol
# [5] = molecular target: the molecule itself; experiment: crystal structure; MsEgtE-PLP crystal, 2.8 Å, two molecules per asymmetric unit; sitting drop at 16 °C, 0.1 M HEPES-Na pH 7.5, 1 M NaCl, 0.1 M LiSO4, 10% PEG1000
# T2 sequence (A0R5M7 whole entry Y48A): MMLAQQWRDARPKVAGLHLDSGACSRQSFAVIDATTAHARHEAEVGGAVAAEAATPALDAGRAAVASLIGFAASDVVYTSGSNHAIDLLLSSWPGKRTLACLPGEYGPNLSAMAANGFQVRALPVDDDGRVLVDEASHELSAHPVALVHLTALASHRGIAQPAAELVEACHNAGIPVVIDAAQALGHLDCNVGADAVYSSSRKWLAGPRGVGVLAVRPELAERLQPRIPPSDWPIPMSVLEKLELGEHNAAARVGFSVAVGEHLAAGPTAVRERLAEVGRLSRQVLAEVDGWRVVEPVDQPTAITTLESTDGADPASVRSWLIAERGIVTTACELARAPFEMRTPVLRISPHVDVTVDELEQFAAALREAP
Molecule,Km [3] [µM],kcat [3] [s⁻¹],further results
CC(=O)C(=O)O [pyruvate],,,"X-ray crystal structure, 2.35 Å [1]: pyruvate binds in the deep crevice of the active center"
"C[N+](C)(C)[C@@H](Cc1cnc([S+]([O-])C[C@H](N)C(=O)O)[nH]1)C(=O)[O-] (stereo partly drawn) [compound 4, sulfoxide 4]",,,"isothermal titration calorimetry, single injection [2]: Y48A mutant still retains a certain level of substrate binding capability"
B1,516.0 ± 122.1,2.08 ± 0.25,
B2,52.1 ± 13.1,0.32 ± 0.02,
B3,679.7 ± 235.0,0.23 ± 0.04,
B4,,,stoichiometry N [4]: 4; stoichiometry N [5]: 2
B5,58.5 ± 8.7,0.03 ± 0.01,
